Experimental data: patent publication US20250243285A1 (Novartis, published 2025)

Legend:
[1] = molecular target: Folate receptor alpha on cells (SKOV3, A1847, T47D; low levels on 293T and IOSE 6) (human, UniProt P15328 25-234); experiment: cell-based or functional assay
[2] = molecular target: T1, EGFR on cells (A431; tumor cell lines; K562 cells electroporated with EGFR mRNA) (UniProt P00533 25-1210, limits assumed); experiment: affinity of the scFv printed above the panel (legend paragraph 89; called KD, nM in paragraph 90); method and form of EGFR not given in the filing, text cites Zhou et al. 2007
T1 construct: whole, on cells; also called epidermal growth factor receptor

Sequence of Folate receptor alpha on cells (SKOV3, A1847, T47D; low levels on 293T and IOSE 6) (P15328 25-234, stated change not applied): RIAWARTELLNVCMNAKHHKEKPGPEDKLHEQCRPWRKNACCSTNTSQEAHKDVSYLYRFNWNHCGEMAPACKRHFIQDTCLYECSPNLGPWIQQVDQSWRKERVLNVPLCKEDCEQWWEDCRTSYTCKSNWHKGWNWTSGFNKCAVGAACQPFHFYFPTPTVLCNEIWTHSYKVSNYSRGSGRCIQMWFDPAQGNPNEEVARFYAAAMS

Binder	CAR expression kept after overnight co-culture with SKOV3 cells at the lowest E:T ratio [1]	frequency of CAR T cells expressing IFN-γ after incubation with FRAPOS SKOV3 cells, fold over MOv19 CAR T cells [1] [fold]	frequency of CAR T cells expressing IL-2 after incubation with FRAPOS SKOV3 cells, fold over MOv19 CAR T cells [1] [fold]	frequency of CAR T cells expressing TNF-α after incubation with FRAPOS SKOV3 cells, fold over MOv19 CAR T cells [1] [fold]	Kd [2] [nM]
C4-27z CAR (fully human anti-FRA C4 scFv linked to CD27 and CD3z signaling domains), on primary human T cells (other, not shown: large carriers) QLVESGGGLVQPGRSLRLSCTTSGFTFGDYAMIWARQAPGKGLEWVSSISSSSSYIYYADSVKGRFTISRDNAKNSLYLQMNSLRAEDTAVYYCARERYDFWSGMDVWGKGTTVTVSSGGGGSGGGGSGGSAQSALTQPASVSGSPGQSITISCTGTSSDVGSYNLVSWYQQHPGKAPKLMIYEGSKRPSGVSNRFSGSKSGNAASLTISGLQAEDEADYYCQSYDSSLSVVFGGGTKLTVLG	~50 % of initial CAR expression	5.6	9	6.1	–
C10 (scFv, The CAR built from it is m23; also called C10 scFv (anti-EGFR, parental)) scFv: EVQLVQSGAEVKKPGSSVKVSCKASGGTFSSYAISWVRQAPGQGLEWMGGIIPIFGTANYAQKFQGRVTITADESTSTAYMELSSLRSEDTAVYYCAREEGPYCSSTSCYGAFDIWGQGTLVTVSSGGGGSGGGGSGGGGSQSVLTQDPAVSVALGQTVKITCQGDSLRSYFASWYQQKPGQAPTLVMYARNDRPAGVPDRFSGSKSGTSASLAISGLQSEDEADYYCAAWDDSLNGYLFGAGTKLTVL	–	–	–	–	264
P2-4 (scFv, The CAR built from it is m21; also called P2-4 scFv (anti-EGFR)) scFv: EVQLVQSGAEVKKPGSSVKVSCKASGGTFSSYAISWVRQAPGQGLEWMGGIIPIFGTANYAQKFQGRVTITADESTSTAYMELSSLRSEDTAVYYCAREEGPYCSSTSCYAAFDIWGQGTLVTVSSGGGGSGGGGSGGGGSQSVLTQDPAASVALGQTVKITCQGDSLRSYFASWYQQKPGQAPTLVMYARNDRPAGVPDRFSGSKSGTSASLAISGLQSEDEADYYCAAWDDSLNGYLFGAGTKLTVL	–	–	–	–	15.4
P3-5 (scFv, The CAR built from it is m22; also called P3-5 scFv (anti-EGFR)) scFv: EVQLVQSGAEVKKPGSSVKVSCKASGGTFSSYAISWVRQAPGQGLEWVGGIIPIFGTANYAQKFQGRVKITADESASTAYMELSSLRSEDTAVYYCAREEGPYCSSTSCYGAFDIWGQGTLVTVSSGGGGSGGGGSGGGGSQSVLTQDPAVSVALGQTVKITCQGDSLRSYLASWYQQKPGQAPTLVTYARNDRPAGVPDRFSGSKSGTSASLAISGLQSEDEADYYCAAWDDSLNGYLFGAGTKLTVL	–	–	–	–	88.2
